Source: the supplement of paper PMC12764529
± gives the half width of the 95% confidence interval.

Experiment: folding stability dG unfold from chymotrypsin proteolysis; higher = more stable
How it was run: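 K50 was inferred by Bayesian fitting of sequencing counts obtained after protease digestion of designed mini-proteins. Unfolding free energy was derived by comparison with a sequence-predicted unfolded-state K50 and a shared folded-state K50, for each protease or both combined. The mini-proteins were under 80 residues, had no cysteine, were carried in a PA-tagged cDNA display construct, and were kept only if AlphaFold2 dimer inter-PAE exceeded 15.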
In the case of “VNPRTLTYDPVTNRIDAATPDGTPVTVTAGSSGYTATVTDPATGAPTVVPLTEAELAALEADPAFPLATSNS [r1_18_JUSTAS]”, the “folding stability dG unfold” value is reported as 0.653 ± 0.057 kcal/mol. With “SAGGSASTREVGDKTLTVTPIKLPNGTNLVLLRTFDPATGKVPVLAFPPEEGNPLGESVLPASELLSAGGSA [r15_671_JUSTAS]” the “folding stability dG unfold” value was -0.654 ± 0.14 kcal/mol. In the case of “SAGGSAGGSGMERVEAVREALVPGDPDAVPAPITYDPQTGKLTYSVSDPRVAAALAADPLVSLSAGGSAGGS [r12_623_JUSTAS]”, the “folding stability dG unfold” value is reported as 0.333 ± 0.11 kcal/mol. In the case of “SAGGSSSVTEISISRSRQRPDASGRWVTEPVLPPGVYAPTTVVHENGVLTFNTVYDGKPVTETIPLSSAGGS [r16_500_JUSTAS]”, the “folding stability dG unfold” value is reported as 0.47 ± 0.13 kcal/mol. In the case of “SAGGSAGGSAGGRPIPLDEFRDMPPNWKIEFNNGKEVEIPADDIKKPIDKGDTVRIEPVPSAGGSAGGSAGG [r7_643_TrROS]”, the “folding stability dG unfold” value is reported as 0.705 ± 0.024 kcal/mol. For “SAGGSAGGSAGGGPMIYTEETVEEVVKVGEKSIKRTVTTTKVEVPGKPGVVLETKVDWGGSAGGSAGGSAGG [r7_795_JUSTAS]”, the “folding stability dG unfold” value was 0.837 ± 0.024 kcal/mol. With “SAGGSAGGSAAEPPPPATIEVLVLNEDGYVYRAEIRVNEDGEITIEVEKIPVKPGESLEELSAGGSAGGSAG [r3_437_TrROS_Hall]” the “folding stability dG unfold” value was 4 ± 0.23 kcal/mol. With “MTPEAFAGPGGRPLAELFLARFRRPVLDPETGLPTWEPAGVLVFPRETEPEELAAIFEALPELEEIEIAPAS [r1_132_TrMRF]” the “folding stability dG unfold” value was 0.149 ± 0.22 kcal/mol. For “SAGGSAGGSAGGGMPVPPVEVVEVSEEVRPLPPSSDKTVRRVTRTLPDGSTLTFEEPPESAGGSAGGSAGGS [r10_945_JUSTAS]”, the “folding stability dG unfold” value was 0.459 ± 0.04 kcal/mol. For “SAGGSAGGSAGGMVRTLDLPNLSEEEIEEIIKKNPNEVYEITFRPPNGPEVTKTIPTHHSAGGSAGGSAGGS [r10_408_JUSTAS]”, the “folding stability dG unfold” value was 0.84 ± 0.081 kcal/mol. For “SAGGSSNVGEVTIEIREPVNPERFVDPEYREKAIEEMKEKAEAKAEEIKKENPNVKVTVNISLLEPGSAGGS [r8_183_JUSTAS]”, the “folding stability dG unfold” value was 0.659 ± 0.07 kcal/mol. With “SAGMLVRIETLPPGAATEEVVPMTPEEAKEYLEAQGYTVSTDPANPTMTFSHPDATVTVTFEPVPADLRSAG [r5_248_JUSTAS]” the “folding stability dG unfold” value was 0.79 ± 0.12 kcal/mol.

Experiment: folding stability dG unfold from trypsin proteolysis; higher = more stable
Protocol: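 Folding stability of de novo designed mini-proteins (<80 aa, no Cys; designed by TrROS, TrMRF, ProteinMPNN and the joint model) was measured by cDNA display proteolysis with trypsin and chymotrypsin. Each protease was used at 11 concentrations in a threefold dilution series plus a no-protease condition. K50 was inferred by Bayesian fitting of sequencing counts, and dG unfold was derived against a sequence-predicted unfolded-state K50 (Tsuboyama et al. method). Sequences shown include variable-length N-terminal GS-type padding (SAGGSAGG...) inside a display construct carrying a PA tag. Rows were kept only if the AF2 dimer inter-PAE was >15, to exclude likely homo-oligomers.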
With “SAGGSAGGSASIEVEAEPAEIEKVAEEAPEDEEVLVRDPKTGRVYLVKPDEVVLLREVPALLSAGGSAGGSA [r18_246_JUSTAS]” the “folding stability dG unfold” value was -0.238 ± 0.086 kcal/mol. With “SAGGSAGGSAGGSMYVIVTVPPGERLTFPLNPEIDVPEEEIKEKLKKELPVESIEILLPSAGGSAGGSAGGS [r4_116_JUSTAS]” the “folding stability dG unfold” value was -0.362 ± 0.19 kcal/mol. For “SAGGDPGAEKIGTKTYPVGDKELTIETYRLPDPDELKVVVTDPTDGKTTPITVSLSEPPNIPVAELLSAGGS [r16_768_JUSTAS]”, the “folding stability dG unfold” value was -0.276 ± 0.16 kcal/mol. For “SAGGSAGGSREIKIDDFERHNGYYYITVEIKDPNNGKKRPLEIPYPPNQPNADRFAKDIADELSAGGSAGGS [r12_415_TrROS]”, the “folding stability dG unfold” value was -0.751 ± 0.43 kcal/mol. In the case of “SAGGSAGGSAKKIDVEVDEPVPNGYYRATIRVPGPGKPIEVNVPGPWEDAERKAKELAKELSAGGSAGGSAG [r3_104_TrROS]”, the “folding stability dG unfold” value is reported as -0.964 ± 0.55 kcal/mol. In the case of “AAVIPTPTAEPVKVETLSTEVSPSLFPSPAAGGPRVLRTVVTTKTTVAVQTEDAWVEVETTTTTTEVLPPES [r1_112_JUSTAS]”, the “folding stability dG unfold” value is reported as -0.546 ± 0.21 kcal/mol. For “SAGGSAGGSAGGMITIEEDPNKDLKTVTVYVPEKPKWVTVDVKPSETIEEALAKAEELLKSAGGSAGGSAGG [r7_138_JUSTAS]”, the “folding stability dG unfold” value was 0.0308 ± 0.064 kcal/mol. For “SMLTSPDGTSVTIETKVSPSAGPLPPFFEQTYDPSKDTITVNAPASPEEVAAIRAAPGLETLAVTFTPAESA [r9_827_JUSTAS]”, the “folding stability dG unfold” value was -0.874 ± 0.23 kcal/mol. In the case of “SAGGWRMEIEFPGINPEELRKAIAEAPGNKDVDVDVERIPKDGSVKIEMHGNNPADRKRIQKAVKKAFSAGG [r13_580_TrROS]”, the “folding stability dG unfold” value is reported as -0.928 ± 0.47 kcal/mol. With “SAGGSAGGSAGSPIPVEVKVTTFGPGGVPREAELLTGDPAAFEKAIGKPLPDGSKVEVLLSAGGSAGGSAGG [r11_671_JUSTAS]” the “folding stability dG unfold” value was -0.129 ± 0.083 kcal/mol. With “SAGGSAGGEPRELEAEVEVIEFPPTGVALAVIRVNDGAEPRLIPVPFDAPEDVTPEELAKKILGSAGGSAGG [r6_20_TrMRF]” the “folding stability dG unfold” value was -0.826 ± 0.63 kcal/mol. In the case of “SMYRIEVVRDGKPIPREAVEAAAEAIERARGRPISPEALARELASVPNTVVTVEAYDEPGKPLGTLTFAESA [r9_1045_TrMRF]”, the “folding stability dG unfold” value is reported as -0.253 ± 0.17 kcal/mol. In the case of “SAGGSAGGSAGGMPELTVETEGFPDGSYRVVVTNPGTGELVAVAERPSSTSVADFAKELASAGGSAGGSAGG [r7_633_TrMRF]”, the “folding stability dG unfold” value is reported as -0.688 ± 0.13 kcal/mol. With “SAGGMKIRLDNGKEIEINQSPGYMSIQIRPPDDGKKREYPFPMPDGENSMEDFVNEIANHGRITEIEPSAGG [r13_579_TrROS]” the “folding stability dG unfold” value was 0.522 ± 0.075 kcal/mol. For “MEFTITVEYDEETNELTVTITYPGYTIEIRIDPDGRIRVEVRMDPGMSEEERKRMQELAEELAKKLEEALKS [r1_468_TrROS_Hall]”, the “folding stability dG unfold” value was 4.33 ± 0.69 kcal/mol. With “SAGGSAGGSAGGSAVERIIKEMREKFPPGKEVEIPIEVRTDNGNYVPIEIEFRIPPDQPSAGGSAGGSAGGS [r10_11_TrROS]” the “folding stability dG unfold” value was -0.557 ± 0.4 kcal/mol. For “SFRIEPDPDGTVTVRIPKDFPNKPAEEIADYIQKAFGPGMKIDKDIKIEPDPENGWVEITVKVKLPPGAKSA [r9_1011_TrROS]”, the “folding stability dG unfold” value was 0.913 ± 0.16 kcal/mol. In the case of “SAGGSAGGSAGGNKEVEIPIMIYWPDPNGKPNMHTVEIDMPNNDLPDIKDWAEDNPWTIMSAGGSAGGSAGG [r7_539_TrROS]”, the “folding stability dG unfold” value is reported as 0.287 ± 0.05 kcal/mol. With “SAGGSAGGSAGGTPFKAKDPKTDKVYLGEKDPVSGKVTITDPNTGNPIIVPGGEIEFIVSAGGSAGGSAGGS [r10_28_JUSTAS]” the “folding stability dG unfold” value was 0.00952 ± 0.041 kcal/mol. With “SAGGSAGGSAKPLTVDEILKNLDFPPNMEIEDIEVDQDENEGKPVISIEMYSPGQPYRPTIVSAGGSAGGSA [r18_354_TrROS]” the “folding stability dG unfold” value was -0.151 ± 0.042 kcal/mol. In the case of “SAGGSDLITTEETFVGPGGEITLRTTTVDPKTGKTTTTTTTIPVIKGPPSDPAKIEAELKKRGIPLSAGGSA [r2_304_JUSTAS]”, the “folding stability dG unfold” value is reported as -0.186 ± 0.12 kcal/mol. For “SAGGSAGGSAGGWKTISVNELQDILREEGKPMTADDLIEDPNIKVEENPGNGMPTIEIPPSAGGSAGGSAGG [r7_180_TrROS]”, the “folding stability dG unfold” value was -0.891 ± 0.24 kcal/mol. For “SAGGSAGGSAGGSMTRVFVRKPDYWLEVEEYPDPKNPDRIRLTVKKKIPLSEVTPEELASAGGSAGGSAGGS [r4_316_JUSTAS]”, the “folding stability dG unfold” value was -0.0403 ± 0.26 kcal/mol. In the case of “SAGGSAGGSPRYQIPFEFPNGRNLYIQIERDPEEGQVKVDIMFPDGGTKEITVPPGEEIKIPWSAGGSAGGS [r12_922_TrROS]”, the “folding stability dG unfold” value is reported as -0.659 ± 0.62 kcal/mol.
